For this experiment, the target named is fibrin (Homo sapiens (Human)) (UniProt P02671).

Take δ-plasmin (enzyme): the percent clot digestion (clot weight before and after 2 hours of incubation, in serum, background-corrected) worked out at 7.17%.

The values are drawn from patent publication US20220218639A1.
